Target: T1, His-PCID2 (PCI domain-containing protein 2) (mouse, UniProt Q8BFV2 1-399)
T1 construct: PCID2 (PCI domain-containing protein 2), mouse full-length Pcid2 subcloned into pETDuet; the plasmid section names only the mouse construct; also called His-tagged PCID2; recombinant PCID2 protein; source: E. coli, purified (Ni-NTA His-resins)
Experiment: pull-down; GST-ZNHIT1 incubated with His-PCID2 protein, GST pulldown
Details: both partners purified

T1 sequence (Q8BFV2 whole entry, the tested form may be a part): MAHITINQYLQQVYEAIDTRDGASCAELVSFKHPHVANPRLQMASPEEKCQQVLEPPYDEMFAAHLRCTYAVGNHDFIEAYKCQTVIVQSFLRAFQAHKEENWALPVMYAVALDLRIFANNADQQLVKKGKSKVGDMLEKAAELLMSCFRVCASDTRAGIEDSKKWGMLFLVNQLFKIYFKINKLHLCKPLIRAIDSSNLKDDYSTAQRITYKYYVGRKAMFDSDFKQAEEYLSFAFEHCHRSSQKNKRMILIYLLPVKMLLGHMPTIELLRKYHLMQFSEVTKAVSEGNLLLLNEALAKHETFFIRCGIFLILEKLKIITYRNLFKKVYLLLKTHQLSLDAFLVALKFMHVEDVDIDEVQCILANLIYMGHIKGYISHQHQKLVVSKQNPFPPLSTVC

binding result: binds
B1: GST-ZNHIT1 (Zinc finger HIT-type containing 1) (natural protein, mouse, UniProt Q8R331 1-154, looked up)
chain: MVEKKPAVRSQDPGQRRVLDRAARQRRINRQLEALENDNFQDDPHAGLPQLGKRLPQFDDDADTGKKKKKTRGDHFKLRFRKNFQALLEEQNLSASEGPNYLTACAGPPSRPQRPFCAVCGFPSPYTCVSCGARYCTVRCLGTHQETRCLKWTV
notes: ZNHIT1 (Zinc finger HIT-type containing 1, p18^hamlet), mouse Znhit1 cloned into pGEX-6P-1; Vector pGEX-6P-1; also called GST-tagged ZNHIT1; p18^hamlet; source: E. coli, purified (Glutathione Sepharose 4B)

— paper PMC5686073, “Suppression of SRCAP chromatin remodelling complex and restriction of lymphoid lineage commitment by Pcid2” (Nature Communications, 2017)
